The results in this text go back to PMC3637437.

Where “and” joins values, the source holds several entries; their conditions need not be identical. Equal entries are not always repeated.

Common to all, as to assay: native gel or EMSA; 1 ug of each purified consensus Env gp140 on a NativePAGE native gel, silver stained
Test [1] has as its target Consensus A Env gp140 trimer (bacteriophage).
For test [2], the target named is Consensus E Env gp140 trimer (bacteriophage).
For test [3], the target named is Consensus C Env gp140 trimer (bacteriophage).
Test [4] addresses Con M Env gp140 trimer (HIV-1 group M consensus) (bacteriophage).
For test [5], the target named is Consensus B Env gp140 trimer (bacteriophage).

For Consensus A Env gp140 trimer, in test [1], the stoichiometry N came out at 3.

For Consensus E Env gp140 trimer, the stoichiometry N in test [2] is 3 and 2.

With Consensus C Env gp140 trimer, the stoichiometry N in test [3] is 3 and 2.

For the substance “Con M Env gp140 trimer (HIV-1 group M consensus)”, the stoichiometry N in test [4] is 3 and 2.

Consider Consensus B Env gp140 trimer, for which the stoichiometry N in test [5] was 3.
